Test results: US10000749B2, “Valencene synthase polypeptides, encoding nucleic acid molecules and uses thereof” (Evolva, Inc., priority 2013, dated 2018)
Entries after “also recorded” stand apart in the source; their conditions may differ.

B1: EgVS: Eryngium glaciale valencene synthase, amino acid sequence SEQ ID NO:1; His-tagged at the C-terminus for kinetics (protein)
chain: MSLNVLSTSGSAPTTKSSEITRRSANYHPSLWGDKFLEYSSPDHLKNDSFTEKKHEQLKEEVKKMLVETVQKPQQQLNLINEIQRLGLSYLFEPEIEAALQEISVTYDEFCCSTDADDLHNVALSFRILREHGHNVSSDVFQKFMDSNGKLKDYLVNDARGLLSLYEATHFRVHNDDKLEELLSVTTSRLEHLKSHVKYPLEDEISRALKHPLHKELNRLGARYYISIYEKFDSHNKLLLEFAKLDFNRLQKMYQHELAHLTRWWKDLDFTNKLPFARDRIVEGYFWILGMYFEPERKDVREFLNRVFALITVVDDTYDVYGTFKELLLFTDAIERWGTSDLDQLPGYMRIIYQALMDVYNQMEEKLSMKADCPTYRLEFAIETVKAMFRSYLEEARWSKEHYIPSMEEYMTVALVSVGYKTILTNSFVGMGDIATREVFEWVFNSPLIIRASDLIARLGDDIGGHEEEQKKGDAATAIECYIKENHVTKHEAYDEFQKQIDNAWKDLNKEALRPFPVPMTFITRVVHFTRAIHVIYADFSDGYTRSDKAIRGYITSLLVDPIPL
modifications: C-terminal His tag; Eryngium glaciale; valencene synthase protein
notes: His-tagged at the C-terminus for kinetics

What was measured:
ticks and mosquitoes = settings: against ticks and mosquitoes; cited from earlier work
[1] = system: Saccharomyces cerevisiae strain ALX11-30; assay: Shake flask assay of cells expressing valencene synthase; format: cell-based; settings: FIG. 7, cells expressing the synthase
Experimental: Seed cultures were started in 250 mL flasks by inoculating 15 mL of SD or SDE medium (for ALX11-30 and ALX7-95 strains, respectively) with freshly growing colonies of the 7 strains shown in Table 5 above. The cultures were grown for 24 hours, and 2.5 mL of each culture were used to inoculate 50 mL of fermentation medium (2% ammonium sulfate, 2% potassium phosphate, 0.1% NaCl, 0.6% MgSO4.7H2O, 0.4% yeast extract, 1 mL mineral solution [FeSO4.7H2O 0.028%, ZnSO4.7H2O 0.029%, CuSO4.5H2O 0.008%, Na2MoO4.2H2O 0.024%, CoCl2.6H2O 0.024%, MnSO4.H2O 0.017%, HCl 1 mL], 0.5 mL 50% glucose, 1.5 mL vitamin solution [biotin 0.001%, Ca-pantothenate 0.012%, inositol 0.06%, pyridoxine-HCl 0.012%, thiamine-HCl 0.012%], and 0.5 mL 10% CaCl2) in a 250 mL baffled flask. The cultures were grown at 28° C. After 16 hours of incubation, the cultures were fed 3.6 mL of 50% glucose and 0.667 mL of 12.5% yeast extract. […] An aliquot of the organic phase was analyzed by gas chromatography and the amount of valencene produced was quantified by calculating the area under the peak representing valencene. […]
Table 6a below provides product distribution profiles including the amount of valencene produced from the shake flask assay, as determined by gas chromatography, of CVS 277 compared to two strains that produce EGVS in the ALX11-30 strain (as described in Example 3).

[2] = Steady state kinetic analysis of His-tag purified valencene synthases; format: biochemical
Experimental: In this example, the activity of E. glaciale valencene synthase (EgVS; SEQ ID NO:1) and of the citrus valencene synthase designated V277 (SEQ ID NO:31) were evaluated by steady state kinetic analysis. To compare the activities of these enzymes in vitro, the valencene synthases were Histidine-tagged at the C-terminus, expressed in E. coli, purified by nickel chelate chromatography, and evaluated for activity by steady state kinetic analysis. […] T=30C. Detection: GC/MS-SIM.

Row | Molecule | Repellent and insecticide effect (ticks and mosquitoes) | Valencene production in yeast compared to the CVS synthase ([1]; listed as EG synthase) | Valencene production in yeast compared to the CVS synthase ([1]; listed as EVS) | Turnover compared with valencene synthase V277 [2] | Total and specific activity compared with valencene synthase V277 ([2]; side-by-side comparison, FIG. 6)
1 | C=C(C)[C@@H]1CCC2=CC(=O)C[C@@H](C)[C@]2(C)C1 [nootkatone, 4,4a,5,6,7,8-hexahydro-6-isopropenyl-4,4-a-dimethyl-2(3H)-naphthalenone] | effective repellent and insecticide |  |  |  | 
2 | B1 |  | more than twice the amount of valencene | significantly greater | turned over significantly more times | dramatically higher total and specific activity; also recorded: exhibits greater activity
